The source of these data is patent US20040110161, “Method for detecting mutations in nucleotide sequences” (published 2004).

Series [1] addresses T1, MutS (Cy5-labeled) (Escherichia coli, UniProt P23909 P23909:1-853).
T1 sequence: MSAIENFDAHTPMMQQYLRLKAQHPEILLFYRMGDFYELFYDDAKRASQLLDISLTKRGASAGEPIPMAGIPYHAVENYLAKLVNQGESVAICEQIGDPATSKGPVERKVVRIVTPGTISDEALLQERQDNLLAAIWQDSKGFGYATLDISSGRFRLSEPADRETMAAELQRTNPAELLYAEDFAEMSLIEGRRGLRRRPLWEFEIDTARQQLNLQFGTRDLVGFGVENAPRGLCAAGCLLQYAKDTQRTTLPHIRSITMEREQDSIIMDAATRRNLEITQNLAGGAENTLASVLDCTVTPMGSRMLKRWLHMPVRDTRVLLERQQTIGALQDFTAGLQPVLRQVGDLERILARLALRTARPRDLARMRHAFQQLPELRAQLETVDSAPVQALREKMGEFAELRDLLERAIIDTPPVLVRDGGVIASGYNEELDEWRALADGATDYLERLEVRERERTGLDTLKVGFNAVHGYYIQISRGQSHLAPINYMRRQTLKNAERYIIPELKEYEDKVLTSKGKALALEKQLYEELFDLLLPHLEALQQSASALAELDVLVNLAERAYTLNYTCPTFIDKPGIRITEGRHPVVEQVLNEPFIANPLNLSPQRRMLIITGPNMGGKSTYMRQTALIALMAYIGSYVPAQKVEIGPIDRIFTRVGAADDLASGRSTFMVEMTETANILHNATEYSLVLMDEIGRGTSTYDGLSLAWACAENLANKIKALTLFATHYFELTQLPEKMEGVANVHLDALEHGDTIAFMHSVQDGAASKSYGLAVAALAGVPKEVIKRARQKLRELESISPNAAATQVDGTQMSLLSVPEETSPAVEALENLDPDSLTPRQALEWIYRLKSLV
The experiment in a line: impedance spectroscopy; no or only very slight binding. As to conditions: tags: Cy5 nonspecific amine label; also Gene Check unlabeled in EMSA; hairpin. The procedure:
(§1) The individual electrodes were measured in aqueous K₃/K₄Fe(CN)₆ solution (Darmstadt, Germany) (20 mM in 20 mM tris buffer, 100 mM KCl, 5 mM MgCl), in the frequency range from 100 mHz to 1 MHz […], before and after incubating with mutS. The measured values are shown in the Bode diagram. The measurements were carried out, at room temperature, on an IM 6e impedance measuring desk supplied by Zahner Messtechnik.
(§2) The advantage of this method is that it is possible to carry out measurements on the samples without destroying them and without using labels. The mutation-recognizing E. coli mutS protein was used as a model system for the binding of mispairing-recognizing substrates, while Seq. ID Nos. 50 and 51 were used as duplex-forming oligonucleotides. […] The results of the measurement are depicted in FIGS. 29A and 29B.

Series [2] deals with T1, MutS (Cy5-labeled). The experiment in a line: EMSA; 150 mM KCl, 10 mM MgCl2; labeled and unlabeled. As to conditions: tags: Cy5 nonspecific amine label; also Gene Check unlabeled in EMSA; label: 5'-biotin (SPR); 5'-32P (EMSA); G/T mismatch. The procedure: Subsequently, the band shift method was used to check whether the Cy™5-conjugated mutS proteins were functionally active, i.e. whether they were still able to bind specifically to base mispairings. For this, heteroduplexes were generated by hybridizing the oligonucleotides […] (Seq. ID No. 6) and “GT” (Seq. ID No. 7), respectively, with the “sense” oligonucleotide (Seq. ID No. 11) by heating for 5 minutes at 95° C. in […] tris-HCl, 100 mM KCl, 5 mM MgCl₂, followed by cooling slowly down to room temperature. […] Using T₄ polynucleotide kinase (New England Biolabs, Frankfurt), 10 pmol each of the two heteroduplexes which wer produced using the “AT” and “GT” oligonucleotides were radioactively labeled, in accordance with the manufacturer's instructions, with 150 μCi of ³²P-ATP at their 5′ ends and purified through Sephadex G50 gel filtration columns (Pharmacia, Uppsala, Sweden) in accordance with the manufacturer's instructions. […] After the run, the gels were dried and analyzed by autoradiography (FIG. 6).

Series [3] deals with T1, MutS (Cy5-labeled). The experiment in a line: hydrogel chip fluorescence. The note with it: tags: Cy5 nonspecific amine label, also Gene Check unlabeled in EMSA. An excerpt: (§3) The biotinylated “sense” oligonucleotide (Seq. ID No. 10) was electronically addressed to the individual positions on the hydrogel chip, for 60 sec. and at a voltage of 2.1 V, in the Nanogen workstation loading appliance. The hybridization with the second-strand AT (Seq. ID No. 12), GT (Seq. ID No. 13), AA (Seq. ID No. 14), AG (Seq. ID No. 15), CA (Seq. ID No. 16), CC (Seq. ID No. 17), CT (Seq. ID No. 18), GG (Seq. ID No. 19), TT (Seq. ID No. 20), ins+1T (Seq. ID No. 21), ins+2T (Seq. ID No. 22) and ins+3T (Seq. ID No. 23) oligonucleotides was carried out for 120 sec. at 2.1 V. The loading scheme is shown in Table 45; the name of each second-strand oligonucleotide indicates the mispairing or insertion (“ins”) which is formed on hybridization.
(§4) After the loading, the chips were taken out of the loading appliance, filled with 1 ml of blocking buffer and incubated at room temperature for 60 min in order to saturate nonspecific protein-binding sites. The binding of E.coli mutS (ChipA), MBP-MutS (ChipB), Thermus aquaticus mutS (ChipC) and Thermus thermophilus mutS (Chip D) to the resulting DNA double strands was then tested. For this, the chips were incubated for 60 min with in each case 2-3 μg of the Cy™5-labeled mutS proteins in 100 μl of incubation buffer. The chips which were incubated with E.coli mutS and MBP mutS were incubated at room temperature while the chips which were incubated with Thermus aquaticus mutS and Thermus thermophilus mutS were incubated at 37° C. After this incubation, the chips were washed by hand with 10 ml of incubation buffer and inserted into the Nanogen reader. In the reader, the chips were washed, at a temperature of 37° C. (E.coli mutS and MBP-mutS) or 50° C. (Thermus aquaticus mutS and Thermus thermophilus mutS), 70-80× with in each case 0.25 ml of washing buffer.
(§5) Finally, the Cy™3 and Cy™5 fluorescence intensities at the individual positions on the chips were measured in the Nanogen reader using the following instrument settings: high sensitivity (“high gain”) in the case of Cy™5, low sensitivity (“low gain”) in the case of CY™3; 256 μs integration time. Care was taken to ensure that the Cy™3 fluorescence intensity was distributed homogeneously over the chip surface.
For orientation: In EMSA bound probe runs differently from free probe, usually more slowly.

In series [4] the target is T2, MBP-MutS fusion (Cy5-labeled) (Escherichia coli, UniProt P23909 P23909:1-853).
T2 chain: T1 sequence
Briefly: hydrogel chip fluorescence. As to conditions: label: 5'-biotin, 5'-Cy3.
From the text: as §3, §4, §5

In series [5] the target is T1, MutS (Cy5-labeled). The experiment in a line: impedance spectroscopy; 100 mM KCl, 5 mM MgCl2. As to conditions: tags: Cy5 nonspecific amine label; also Gene Check unlabeled in EMSA; hairpin, two G/T mismatches. The procedure: as §1, §2

Substitutions are numbered along the chain they refer to.

ATTCGATCGGGGCGGGGCGAGCTTTTGCTCGCCCCGCCCCGATCGAAT (structured_DNA, 5'-SH, amino modifier X in loop) [hairpin perfectly paired]: the binding result in series [1] is “no binding”.

B1: sense(36)/GT (dsDNA)
DNA 1: AAGCATACGGAAGTTAAAGTGCGGATCATCTCTAGC
DNA 2: TGGCTAGAGATGATCCGCGCTTTAACTTCCGTATGC
As to B1, the binding result in series [2] is given as “binds”.

B2: sense/CC mismatch (dsDNA)
DNA 1: AAGCATACGGAAGTTAAAGTGCGGATCATCTCTAGCCA
DNA 2: B1 DNA 2 with G17C, G19A
B2: the binding signal in series [3] (label: 5'-biotin, 5'-Cy3, C/C mismatch) was found to be 1.37 fold vs AT.

B3: sense/AT perfect duplex (dsDNA)
DNA 1: B2 DNA 1
DNA 2: B1 DNA 2 with G19A
The molecule B3 displayed a binding signal in series [3] (label: 5'-biotin sense, 5'-Cy3 AT) of 1 fold vs AT.

B4: sense/CT mismatch (dsDNA)
DNA 1: B2 DNA 1
DNA 2: B1 DNA 2 with G19C
As for B4, the binding signal in series [3] (label: 5'-biotin, 5'-Cy3, C/T mismatch) was found to be 6.24 fold vs AT; in series [4] (C/T mismatch), 3.56 fold vs AT.

B5: sense/GT mismatch (dsDNA)
DNA 1: B2 DNA 1
DNA 2: B1 DNA 2
Consider B5, for which the binding signal in series [3] (label: 5'-biotin, 5'-Cy3, G/T mismatch) was found to be 29 fold vs AT; in series [4] (G/T mismatch) it was 22.3 fold vs AT.

B6: sense/AG mismatch (dsDNA)
DNA 1: B2 DNA 1
DNA 2: B1 DNA 2 with G19A, C20A
For the molecule B6, the binding signal in series [3] (label: 5'-biotin, 5'-Cy3, A/G mismatch) came to 3.34 fold vs AT; in series [4] (A/G mismatch) it was 2.72 fold vs AT.

B7: sense/AA mismatch (dsDNA)
DNA 1: B2 DNA 1
DNA 2: B1 DNA 2 with G19A, T21A
Take B7: the binding signal was 13 fold vs AT in series [3] (label: 5'-biotin, 5'-Cy3, A/A mismatch) and 4.03 fold vs AT in series [4] (A/A mismatch).

B8: sense/AC mismatch (dsDNA)
DNA 1: B2 DNA 1
DNA 2: B1 DNA 2 with G19A, T21C
Regarding B8, the binding signal in series [3] (label: 5'-biotin, 5'-Cy3, A/C mismatch) worked out at 5.73 fold vs AT; in series [4] (A/C mismatch), 2.53 fold vs AT.

B9: sense/GG mismatch (dsDNA)
DNA 1: B2 DNA 1
DNA 2: B1 DNA 2 with G19A, C20G
With B9, the binding signal in series [3] (label: 5'-biotin, 5'-Cy3, G/G mismatch) turned out to be 18.4 fold vs AT; in series [4] (G/G mismatch) it was 6.5 fold vs AT.

B10: sense/TT mismatch (dsDNA)
DNA 1: B2 DNA 1
DNA 2: B1 DNA 2 with G19T
On to B10, for which the binding signal was 1.82 fold vs AT in series [3] (label: 5'-biotin, 5'-Cy3, T/T mismatch) and 1.94 fold vs AT in series [4] (T/T mismatch).
For the molecule ATTCGATCGGGGCGGGGCGAGCTTTTTGCTCGCCTTGCCCCGATCGAAT (structured_DNA, 5'-SH, amino modifier X in loop) [hairpin with two GT mispairings], the binding result in series [5] is given as “binds”.
